Experimental data as given in the supplement of paper PMC9170038.

Tests used:
MS2 coat protein [1] = test: apparent KD of MS2 coat protein; designed switch direction (-1 OFF switch, 1 ON switch): 1; higher = weaker reporter binding
Method in brief: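 Apparent KD, taken as the median over clusters for each design, was obtained by curve-fitting normalised cluster fluorescence. Designed RNA switches had been transcribed on Illumina chips by stalled E. coli RNA polymerase and titrated with SNAP-549-labelled MS2 coat protein, doubling from 0.7 or 1.5 nM to 3 µM.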

MS2 coat protein [2] = test: apparent KD of MS2 coat protein; higher = weaker reporter binding; settings: Eterna round: R107
Method in brief: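 Designed RNA switches were transcribed on-chip from Illumina sequencing clusters. SNAP-549-labelled MS2 coat protein was titrated onto them in twofold steps from 0.7 or 1.5 nM to 3 µM in 100 mM Tris-HCl pH 7.5, 80 mM KCl, 4 mM MgCl2, either without or with constant ligand. Apparent KD reflects the per-design median of normalised cluster binding-curve fits.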

[3] = input ligand: microRNA oligo, concentration not stated
[4] = Eterna round: R95, input ligand: FMN 200 uM
[5] = Eterna round: R95, input ligand: microRNA oligo, concentration not stated
[6] = Eterna round: R95, input ligand: none
[7] = input ligand: theophylline 20 uM
[8] = input ligand: tryptophan 2.4 mM
[9] = input ligand: theophylline 2 mM

| Sequence | apparent KD of MS2 coat protein (MS2 coat protein [2]; input ligand: arginine 13.2 mM) | apparent KD of MS2 coat protein (MS2 coat protein [2]; [7]) | apparent KD of MS2 coat protein (MS2 coat protein [2]; [8]) | apparent KD of MS2 coat protein (MS2 coat protein [2]; [9]) | apparent KD of MS2 coat protein (MS2 coat protein [2]; input ligand: none) | other results |
| --- | --- | --- | --- | --- | --- | --- |
| AAAAAACAUGAGGAUCACCCAUGUCGAAAGACAUGAGGAUAUGUGUGGAAACCAUACUAUACAGAAGGCAUAAAAA [SS1 - 1009] (Eterna round: R96, puzzle: Same State 1) |  |  |  |  |  | apparent KD of MS2 coat protein (MS2 coat protein [1]; input ligand: FMN 200 uM): 60.6 nM; apparent KD of MS2 coat protein (MS2 coat protein [1]; [3]): 137 nM; apparent KD of MS2 coat protein (MS2 coat protein [1]; input ligand: none): 96.8 nM |
| AAAAGAAACAUGUACCUGAGUACAUGAAAACAUGAGGAUCACCCAUGUAACAAGUUGGGUGUUUGUCUUAUAAGAAA [JL pocket 5] (Eterna round: R96, puzzle: Sensor for hsa-mir-208a) |  |  |  |  |  | apparent KD of MS2 coat protein (MS2 coat protein [1]; input ligand: FMN 200 uM): 68.7 nM; apparent KD of MS2 coat protein (MS2 coat protein [1]; [3]): 238 nM; apparent KD of MS2 coat protein (MS2 coat protein [1]; input ligand: none): 231 nM |
| AAAAGACAUGAGGAUCACCCAUGUACCAGGUCCACAGGAUAUCAUGCGUGGUUGAAUUCAUGAGAAGGGUGAGACA [Getied] (puzzle: Same State 1) |  |  |  |  |  | apparent KD of MS2 coat protein (MS2 coat protein [1]; [4]): 48.7 nM; apparent KD of MS2 coat protein (MS2 coat protein [1]; [5]): 188 nM; apparent KD of MS2 coat protein (MS2 coat protein [1]; [6]): 311 nM |
| AAAAGACAUGAGGAUCACCCAUGUAUGAAAAGUACAGGAUAUCACGAGCUAAAGUGCGAGUGAGAAGGGUGAAAAU [Araceesge] (puzzle: Same State 1) |  |  |  |  |  | apparent KD of MS2 coat protein (MS2 coat protein [1]; [4]): 60.9 nM; apparent KD of MS2 coat protein (MS2 coat protein [1]; [5]): 41.9 nM; apparent KD of MS2 coat protein (MS2 coat protein [1]; [6]): 37.1 nM |
| AAAAGUUGCGGGCAGGAUAUGUAUUAAAAUACAUGAGGAUCACCCAUGUGCGGGUAUAACACCCGACAGAAGGGCCAAACGCGAC [Mat - Same State 2 - Mod of UCT - D96] (puzzle: Same State 2) |  |  |  |  |  | apparent KD of MS2 coat protein (MS2 coat protein [1]; [4]): 27.4 nM; apparent KD of MS2 coat protein (MS2 coat protein [1]; [5]): 178 nM; apparent KD of MS2 coat protein (MS2 coat protein [1]; [6]): 333 nM |
| AAACAUGAGGAUCACCCAUGUCGAUUAAAACCCUAAUCUACUCAGGAUAUCCGAAUGCGCGUUUCGGAGAAGGGAGAAAUGUGA [Isessoreri] (Eterna round: R96, puzzle: Same State NG 3) |  |  |  |  |  | apparent KD of MS2 coat protein (MS2 coat protein [1]; input ligand: FMN 200 uM): 27 nM; apparent KD of MS2 coat protein (MS2 coat protein [1]; [3]): 37.5 nM; apparent KD of MS2 coat protein (MS2 coat protein [1]; input ligand: none): 31.7 nM |
| UGUAACAUGAGGAUCACCCAUGUGAGUGAUACCAGACUAGUAUUAGUCCCUUGGCAGCACGUUGGGCGAGUGUAUAGUCUAUGCG [Same State - Theophylline A (Freestyle 14)] | 89.6 nM | 113 nM | 80.3 nM |  |  |  |
| UGUACAUGAGGAUCACCCAUGUUACAUGAUACCAGACAUGAGAGUGUCCCUUGGCAGCAUGGAGCUGAUACGGCGGGAAGCCGGA [#09 SameState-TheophyllineA] | 26.1 nM | 40.4 nM | 27 nM |  |  |  |
| UGUACCAUGUCGGCCGCCACUCAUGAUAAACAUGAGGAUCACCCAUGUAGCGUCAAAGACGCUAUGAGGACCGGGACAUGGUACU [TryBS Zipper 2 #StaticStem #Zipper] | 32.5 nM | 49.2 nM |  | 45 nM |  |  |
| UGUAUGGACUGAAGGAGCGGAAGAUACCAUGAGGAUCACCCAUGGAAUAAGGCGAAAGCCUUCCAGGUAGGUCGCAGUCCAUACU | 16.1 nM | 23.9 nM | 19.8 nM | 23.9 nM | 18.3 nM |  |
| UGUAUGGACUGAAGGAGCGGGAAAUAAACUUGAGGAUCACCCAGGUAAUAGGCGAAAGCCACCCAGGUAGGUCGCAGUCCAUACU | 22 nM | 38.5 nM | 28.5 nM | 45.7 nM | 24.3 nM |  |
| UGUAUGUGAUCUGAUACCAGUCCAACUGGUAAAGCGUGAGGAUCACCCAUGCAAAAUUGGGACCCUUGGCAGCAGAUCGCAUACU | 48.6 nM | 290 nM | 185 nM | 208 nM | 337 nM |  |
| UGUAUGUGAUUUGAUACCAGACCAGCUGGUGGUACACGAGGAUCACCCGUGUAGGUUUGGGUCCCUUGGCAGCAAAUCGCAUACU [SS Theo B #24 Ms3] | 53.7 nM | 68.7 nM | 54.5 nM | 18.1 nM | 56.8 nM |  |
| UGUUAUGUGGGAAGGAGCGCAUACUUCACAUGAGGAUCACCCAUGUCAAGACGUGAGUCAGUGCAGGUAGGUCGCCUAGUUAAGA [Same State - Arginine B (Freestyle 17)] | 36 nM | 75.1 nM | 45 nM | 78.8 nM | 73.9 nM |  |
| UGUUUGGUGCGCGAGUGUUGGAUAAUUGAUACCAGUGUAGAAGAGCGCCCUUGGCAGCGAAUCCUAACAUGAGGAUCACCCAUGU [5.W] | 37.6 nM | 54.7 nM | 40.3 nM |  |  |  |
| UGUUUGGUGCGCGAGUGUUGGAUAAUUGAUACCAGUGUAGAAGUGCGCCCUUGGCAGCGAAUCCUAACAUGAGGAUCACCCAUGU [5.X] | 49.1 nM | 52.3 nM | 39 nM |  |  |  |
| UUAACGAGCUGAAGGAGCGCUCCUCAACAACAUGAGGAUCACCCAUGUACACAUAAUAGGGAGCAGGUAGGUCGCAGCAGGAUGG [ss-argB-?] | 17.4 nM | 23.4 nM | 15 nM | 17 nM | 15.3 nM |  |
